Patent US20210023177A1

What was measured:
[1] = target: human Claudin 18 splice variant 2 (CLDN18.2) (human); assay: cell-based or functional assay
[2] = target: human Claudin 18 splice variant 2 (CLDN18.2) (human)

B1: IMAB362 (antibody, INN chains, looked up, V domains shown)
VH: QVQLQQPGAELVRPGASVKLSCKASGYTFTSYWINWVKQRPGQGLEWIGNIYPSDSYTNYNQKFKDKATLTVDKSSSTAYMQLSSPTSEDSAVYYCTRSWRGNSFDYWGQGTTLTVSS
VL: DIVMTQSPSSLTVTAGEKVTMSCKSSQSLLNSGNQKNYLTWYQQKPGQPPKLLIYWASTRESGVPDRFTGSGSGTDFTLTISSVQAEDLAVYYCQNDYSYPFTFGSGTKLEIKR
Question: What does the source list for B1?
Answer: ADCC EC50 (ng/ml), BxPC3 LVT cells [1]: 47.7 ng/mL; ADCC EC50 (ng/ml), CAPAN1-LVT cells [1]: 65 ng/mL; ADCC EC50 (ng/ml), DANG cells [1]: 4980 ng/mL; ADCC EC50 (ng/ml), DANG-LVT cells [1]: 52.3 ng/mL; ADCC EC50 (ng/ml), HPAC-LVT cells [1]: 117 ng/mL; ADCC EC50 (ng/ml), MiaPaCa2-LVT cells [1]: 23.4 ng/mL; ADCC EC50 (ng/ml), Panc05.04 cells [1]: 5730 ng/mL; ADCC EC50 (ng/ml), Patu8902-LVT cells [1]: 49.2 ng/mL; ADCC EC50 (ng/ml), Suit2-LVT cells [1]: 73.2 ng/mL; ADCC EC50 (ng/ml), YAPC-LVT cells [1]: 29.5 ng/mL; ADCC Max. lysis (%), BxPC3 LVT cells, human PBMC E:T 40:1 [1]: 90.6%; ADCC Max. lysis (%), CAPAN1-LVT cells [1]: 92.6%; ADCC Max. lysis (%), DANG cells [1]: 52.5%; ADCC Max. lysis (%), DANG-LVT cells [1]: 85.9%; ADCC Max. lysis (%), HPAC-LVT cells [1]: 76.2%; ADCC Max. lysis (%), MiaPaCa2-LVT cells [1]: 78.1%; ADCC Max. lysis (%), Panc05.04 cells [1]: 67.1%; ADCC Max. lysis (%), Patu8902-LVT cells [1]: 74.1%; ADCC Max. lysis (%), Suit2-LVT cells [1]: 81.2%; ADCC Max. lysis (%), YAPC-LVT cells [1]: 91.5%; CDC EC50 (ng/ml), CAPAN1-LVT cells [1]: 970 ng/mL; CDC EC50 (ng/ml), MiaPaCa2-LVT cells [1]: 340 ng/mL; CDC EC50 (ng/ml), Patu8902-LVT cells [1]: 291 ng/mL; CDC EC50, gemcitabine pretreated MiaPaCa-2-LVT cells [1]: 4.68 µg/mL; CDC EC50, medium cultivated MiaPaCa-2-LVT cells [1]: 7.67 µg/mL; CDC Max. lysis (%), CAPAN1-LVT cells [1]: 79.1%; CDC Max. lysis (%), MiaPaCa2-LVT cells [1]: 78.4%; CDC Max. lysis (%), Patu8902-LVT cells [1]: 76.7%; CLDN18 surface expression (FACS), % of cells stained [2]: 81.7%
